Laboratory results from the supplement of paper PMC9112550, “Optimization of the antimicrobial peptide Bac7 by deep mutational scanning” (BMC Biology, 2022).

Tested on: Escherichia coli TOP10
Experiment: shrunken log2 fold change of peptide-encoding DNA abundance (4.5 h post-induction vs induction); higher = less antimicrobial activity (less host growth inhibition)
Settings: time post-induction: 4.5 h; library: site-saturation at positions 5, 18, 19, 20
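Further: peptides expressed intracellularly from a pBAD plasmid library in pooled LB shake-flask culture, induced with 0.3% L-arabinose, DNA abundance read by NGS, three biological replicates, DESeq2 with apeglm shrinkage.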

Point of comparison: RRIRARPPRLPRPRPRPEDNPRP, “shrunken log2 fold change” value 0.132. Against it:
- RRIRARPPRLPRPRPRPAACPRP — higher, 0.754
- RRIRARPPRLPRPRPRPAAKPRP — higher, 1.04
- RRIRARPPRLPRPRPRPAARPRP — higher, 0.828
- RRIRARPPRLPRPRPRPACDPRP — higher, 0.851
- RRIRARPPRLPRPRPRPACWPRP — higher, 0.849
- RRIRARPPRLPRPRPRPADGPRP — within 0.2 log units, 0.258
- RRIRARPPRLPRPRPRPAESPRP — higher, 0.531
- RRIRARPPRLPRPRPRPAFNPRP — within 0.2 log units, 0.273
- RRIRARPPRLPRPRPRPAGHPRP — higher, 0.398
- RRIRARPPRLPRPRPRPAGPPRP — higher, 0.453
- RRIRARPPRLPRPRPRPALHPRP — higher, 0.651
- RRIRARPPRLPRPRPRPALIPRP — higher, 0.379
- RRIRARPPRLPRPRPRPAMHPRP — higher, 0.589
- RRIRARPPRLPRPRPRPAMIPRP — within 0.2 log units, 0.0684
- RRIRARPPRLPRPRPRPAMWPRP — within 0.2 log units, 0.317
- RRIRARPPRLPRPRPRPANRPRP — higher, 0.467
- RRIRARPPRLPRPRPRPAPVPRP — higher, 0.627
- RRIRARPPRLPRPRPRPAQPPRP — higher, 0.723
- RRIRARPPRLPRPRPRPARFPRP — higher, 1.03
- RRIRARPPRLPRPRPRPAVAPRP — higher, 0.728
- RRIRARPPRLPRPRPRPAWSPRP — within 0.2 log units, 0.329
- RRIRARPPRLPRPRPRPAYAPRP — higher, 0.476
- RRIRARPPRLPRPRPRPCACPRP — within 0.2 log units, 0.0599
- RRIRARPPRLPRPRPRPCAEPRP — higher, 0.977
- RRIRARPPRLPRPRPRPCCEPRP — higher, 0.512
- RRIRARPPRLPRPRPRPCDGPRP — within 0.2 log units, 0.146
- RRIRARPPRLPRPRPRPCDNPRP — lower, -0.273
- RRIRARPPRLPRPRPRPCDQPRP — within 0.2 log units, -0.00754
- RRIRARPPRLPRPRPRPCELPRP — within 0.2 log units, 0.105
- RRIRARPPRLPRPRPRPCFTPRP — lower, -0.172
- RRIRARPPRLPRPRPRPCGSPRP — within 0.2 log units, -0.0125
- RRIRARPPRLPRPRPRPCGVPRP — within 0.2 log units, 0.255
- RRIRARPPRLPRPRPRPCHAPRP — within 0.2 log units, 0.284
- RRIRARPPRLPRPRPRPCKCPRP — lower, -0.0835
- RRIRARPPRLPRPRPRPCKVPRP — lower, -0.164
- RRIRARPPRLPRPRPRPCLFPRP — lower, -0.131
- RRIRARPPRLPRPRPRPCLIPRP — lower, -0.191
- RRIRARPPRLPRPRPRPCPFPRP — lower, -0.154
- RRIRARPPRLPRPRPRPCPGPRP — lower, -0.258
- RRIRARPPRLPRPRPRPCPHPRP — lower, -0.329
- RRIRARPPRLPRPRPRPCRCPRP — within 0.2 log units, 0.0187
- RRIRARPPRLPRPRPRPCRDPRP — within 0.2 log units, -0.0411
- RRIRARPPRLPRPRPRPCSEPRP — within 0.2 log units, 0.244
- RRIRARPPRLPRPRPRPCVFPRP — higher, 0.39
- RRIRARPPRLPRPRPRPCVPPRP — lower, -0.0952
- RRIRARPPRLPRPRPRPCVVPRP — within 0.2 log units, 0.198
- RRIRARPPRLPRPRPRPCWHPRP — within 0.2 log units, 0.134
- RRIRARPPRLPRPRPRPCYIPRP — lower, -0.607
- RRIRARPPRLPRPRPRPDAIPRP — higher, 1.03
- RRIRARPPRLPRPRPRPDDPPRP — higher, 0.632
- RRIRARPPRLPRPRPRPDGPPRP — higher, 0.455
- RRIRARPPRLPRPRPRPDIAPRP — higher, 0.668
- RRIRARPPRLPRPRPRPDKKPRP — within 0.2 log units, 0.0318
- RRIRARPPRLPRPRPRPDLPPRP — within 0.2 log units, 0.311
- RRIRARPPRLPRPRPRPDLRPRP — within 0.2 log units, 0.0309
- RRIRARPPRLPRPRPRPDMPPRP — within 0.2 log units, 0.0755
- RRIRARPPRLPRPRPRPDMQPRP — higher, 0.984
- RRIRARPPRLPRPRPRPDNDPRP — lower, -0.196
- RRIRARPPRLPRPRPRPDPNPRP — higher, 0.531
- RRIRARPPRLPRPRPRPDQKPRP — higher, 0.442
- RRIRARPPRLPRPRPRPDRLPRP — within 0.2 log units, -0.0424
- RRIRARPPRLPRPRPRPDTMPRP — within 0.2 log units, 0.0783
- RRIRARPPRLPRPRPRPDVSPRP — within 0.2 log units, 0.106
- RRIRARPPRLPRPRPRPDVYPRP — within 0.2 log units, 0.152
- RRIRARPPRLPRPRPRPDWDPRP — higher, 0.341
- RRIRARPPRLPRPRPRPECWPRP — higher, 1.97
- RRIRARPPRLPRPRPRPEDMPRP — higher, 0.816
- RRIRARPPRLPRPRPRPEDSPRP — within 0.2 log units, 0.32
- RRIRARPPRLPRPRPRPEGQPRP — higher, 1.2
- RRIRARPPRLPRPRPRPEIAPRP — higher, 0.992
- RRIRARPPRLPRPRPRPEIDPRP — higher, 1.36
- RRIRARPPRLPRPRPRPEIIPRP — higher, 0.396
- RRIRARPPRLPRPRPRPEKSPRP — higher, 1.01
- RRIRARPPRLPRPRPRPELKPRP — higher, 0.488
- RRIRARPPRLPRPRPRPEMCPRP — higher, 1.17
- RRIRARPPRLPRPRPRPEMGPRP — higher, 1.12
- RRIRARPPRLPRPRPRPENSPRP — within 0.2 log units, 0.172
- RRIRARPPRLPRPRPRPEPMPRP — higher, 0.44
- RRIRARPPRLPRPRPRPEPNPRP — higher, 1.16
- RRIRARPPRLPRPRPRPEQSPRP — within 0.2 log units, 0.119
- RRIRARPPRLPRPRPRPERVPRP — higher, 0.577
- RRIRARPPRLPRPRPRPESFPRP — higher, 0.807
- RRIRARPPRLPRPRPRPESLPRP — higher, 0.938
- RRIRARPPRLPRPRPRPETYPRP — within 0.2 log units, 0.0388
- RRIRARPPRLPRPRPRPEVDPRP — higher, 0.935
- RRIRARPPRLPRPRPRPEVSPRP — higher, 0.431
- RRIRARPPRLPRPRPRPEWMPRP — within 0.2 log units, 0.252
- RRIRARPPRLPRPRPRPEWTPRP — higher, 0.591
- RRIRARPPRLPRPRPRPEYMPRP — lower, -0.276
- RRIRARPPRLPRPRPRPEYVPRP — within 0.2 log units, 0.0744
- RRIRARPPRLPRPRPRPFAIPRP — lower, -0.239
- RRIRARPPRLPRPRPRPFAQPRP — within 0.2 log units, 0.213
- RRIRARPPRLPRPRPRPFCEPRP — within 0.2 log units, 0.303
- RRIRARPPRLPRPRPRPFCNPRP — lower, -0.0929
- RRIRARPPRLPRPRPRPFCTPRP — within 0.2 log units, 0.0721
- RRIRARPPRLPRPRPRPFELPRP — lower, -0.146
- RRIRARPPRLPRPRPRPFFHPRP — within 0.2 log units, -0.0215
- RRIRARPPRLPRPRPRPFHTPRP — within 0.2 log units, -0.0492
- RRIRARPPRLPRPRPRPFIWPRP — within 0.2 log units, 0.00679
- RRIRARPPRLPRPRPRPFMRPRP — higher, 0.59
- RRIRARPPRLPRPRPRPFMVPRP — lower, -0.235
- RRIRARPPRLPRPRPRPFNHPRP — lower, -0.436
- RRIRARPPRLPRPRPRPFNSPRP — within 0.2 log units, -0.0353
- RRIRARPPRLPRPRPRPFPQPRP — higher, 0.512
- RRIRARPPRLPRPRPRPFSEPRP — lower, -0.122
- RRIRARPPRLPRPRPRPFVSPRP — within 0.2 log units, -0.00645
- RRIRARPPRLPRPRPRPFVTPRP — lower, -0.166
- RRIRARPPRLPRPRPRPFVYPRP — lower, -0.116
